Results: paper PMC9179922

Biological target: Strep-tagged recombinant plasminogen activator inhibitor 1 (PAI-1) (human) (UniProt P05121)
Experiment: pull-down; affinity chromatography: purified Strep-tagged PAI-1 (75 µL, 100 µg/mL) immobilised on Strep-Tactin Sepharose gravity flow columns; 2.0 mL medium with untagged vitronectin loaded and incubated 1 h; six washes with Buffer W, elution with Buffer E; Western blot with densitometry

UniProt P05121, sequence (P05121 24-402): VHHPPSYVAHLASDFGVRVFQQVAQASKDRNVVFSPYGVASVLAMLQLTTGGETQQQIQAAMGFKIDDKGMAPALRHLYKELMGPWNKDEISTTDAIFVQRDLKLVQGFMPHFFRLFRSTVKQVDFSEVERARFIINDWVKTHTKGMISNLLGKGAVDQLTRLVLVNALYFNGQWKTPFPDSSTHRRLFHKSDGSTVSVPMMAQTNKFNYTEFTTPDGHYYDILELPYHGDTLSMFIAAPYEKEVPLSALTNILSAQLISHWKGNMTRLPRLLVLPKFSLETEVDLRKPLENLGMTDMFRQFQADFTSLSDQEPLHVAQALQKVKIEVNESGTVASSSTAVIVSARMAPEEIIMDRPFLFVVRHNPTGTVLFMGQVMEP

Substance: untagged vitronectin isoform VTN_rs704: T (AMD risk-associated, Met400) (natural protein)
- fold of vitronectin in the elution fraction against VTN rs704: C: 2.28 fold
